Reference: patent US20150031601A1

B1: SEQ ID NO: 206 (peptide)
peptide: GFCYKVCVYRNGVRSCYRRCN
B2: SEQ ID NO: 211 (peptide)
peptide: GFCYRVCVYRNGVRVCSRRCN
B3: SEQ ID NO: 125 (peptide)
peptide: GFCARVCVKRNGVRVCYRRCN
B4: SEQ ID NO: 144 (peptide)
peptide: GFCGHVCVYRNGVRVCYRRCS
B5: SEQ ID NO: 252 (peptide)
peptide: GFCWNVCVYRNGVRRCHRRCN
B6: SEQ ID NO: 170 (peptide)
peptide: GFCGRVCVYRNGVRRCYRRCN
B7: SEQ ID NO: 260 (peptide)
peptide: GFCWNFCVYRNGVRVCHRRCN
B8: SEQ ID NO: 237 (peptide)
peptide: GFCWNVCVYRNGHRVCHRRCN
B9: SEQ ID NO: 210 (peptide)
peptide: GFCYRVCVYRNGVRVCHRRCN
B10: SEQ ID NO: 100 (peptide)
peptide: KFCWNVCVYRNGVRVCHRRCN
B11: SEQ ID NO: 232 (peptide)
peptide: GFCWNVCVYRHGVRVCHRRCN
B12: SEQ ID NO: 19 (peptide)
peptide: GFCWYSCVYRNGVRVCYRRCN
B13: SEQ ID NO: 228 (peptide)
peptide: GFCWNVCVYRNRVRVCHRRCN
B14: SEQ ID NO: 137 (peptide)
peptide: GFCFYVCVKRNGVRVCHRRCN
B15: SEQ ID NO: 227 (peptide)
peptide: GFCWNVCVYRNKVRVCHRRCN
B16: SEQ ID NO: 239 (peptide)
peptide: GFCWNVCVYRNGRRVCHRRCN
B17: SEQ ID NO: 172 (peptide)
peptide: GFCGRVCVRRNGVRVCYRRCN
B18: SEQ ID NO: 242 (peptide)
peptide: GFCWNVCVYRNGYRVCHRRCN
B19: SEQ ID NO: 262 (peptide)
peptide: GFCWNICVYRNGVRVCHRRCN
B20: SEQ ID NO: 171 (peptide)
peptide: GFCGRVCVYRNGVRTCYRRCN
B21: SEQ ID NO: 254 (peptide)
peptide: GFCWNVCVYRNGVRYCHRRCN
B22: SEQ ID NO: 235 (peptide)
peptide: GFCWNVCVYRNGARVCHRRCN
B23: SEQ ID NO: 218 (peptide)
peptide: GFCWHVCARRNGVRVCYRRCN
B24: SEQ ID NO: 249 (peptide)
peptide: GFCWNVCVYRNGVRLCHRRCN
B25: SEQ ID NO: 231 (peptide)
peptide: GFCWNVCVYRGGVRVCHRRCN
B26: SEQ ID NO: 98 (peptide)
peptide: HFCWNVCVYRNGVRVCHRRCN
B27: SEQ ID NO: 10 (peptide)
peptide: GFCWKVCVYRNGVRVCYRRCN
B28: SEQ ID NO: 219 (peptide)
peptide: GFCWHVCHYRNSVRVCYRRCN
B29: SEQ ID NO: 11 (peptide)
peptide: GFCWNVCVYRNGVRVCYRRCN
B30: SEQ ID NO: 251 (peptide)
peptide: GFCWNVCVYRNGVRNCHRRCN
B31: SEQ ID NO: 248 (peptide)
peptide: GFCWNVCVYRNGVRICHRRCN
B32: SEQ ID NO: 207 (peptide)
peptide: GFCYNVCVYRNGVRRCYRRCN
B33: SEQ ID NO: 120 (peptide)
peptide: GFCAKVCVYRNGVRSCYRRCN
B34: SEQ ID NO: 209 (peptide)
peptide: GFCYRVCVYRNGVRTCYRRCN
B35: SEQ ID NO: 195 (peptide)
peptide: GFCTYVCVKRNGVRKCYRRCN
B36: SEQ ID NO: 213 (peptide)
peptide: GFCWHVCVYRNGARSCYRRCN
B37: SEQ ID NO: 258 (peptide)
peptide: GFCWNACVKRNGVRVCYRRCN
B38: SEQ ID NO: 245 (peptide)
peptide: GFCWNVCVYRNGVRFCHRRCN
B39: SEQ ID NO: 253 (peptide)
peptide: GFCWNVCVYRNGVRWCHRRCN
B40: SEQ ID NO: 15 (peptide)
peptide: GFCWYGCVYRNGVRVCYRRCN
B41: SEQ ID NO: 155 (peptide)
peptide: GFCGHVCVYRNGVRRCYRRCN
B42: SEQ ID NO: 246 (peptide)
peptide: GFCWNVCVYRNGVRGCHRRCN
B43: SEQ ID NO: 230 (peptide)
peptide: GFCWNVCVYRAGVRVCHRRCN
B44: SEQ ID NO: 234 (peptide)
peptide: GFCWNVCVYRRGVRVCHRRCN
B45: SEQ ID NO: 233 (peptide)
peptide: GFCWNVCVYRQGVRVCHRRCN
B46: SEQ ID NO: 229 (peptide)
peptide: GFCWNVCVYRNYVRVCHRRCN
B47: SEQ ID NO: 122 (peptide)
peptide: GFCARVCVYRNGVRSCYRRCN
B48: SEQ ID NO: 101 (peptide)
peptide: MFCWNVCVYRNGVRVCHRRCN

These binders were tested against serum proteins (assay: 90% serum, 30 kDa ultrafiltration, HPLC).

| Binder | Protein binding (%) |
| --- | --- |
| B1 | 86% |
| B2 | 96% |
| B3 | 90% |
| B4 | 68% |
| B5 | 76% |
| B6 | 87% |
| B7 | 84% |
| B8 | 40% |
| B9 | 89% |
| B10 | 78% |
| B11 | 85% |
| B12 | 89% |
| B13 | 86% |
| B14 | 86% |
| B15 | 80% |
| B16 | 65% |
| B17 | 88% |
| B18 | 83% |
| B19 | 88% |
| B20 | 84% |
| B21 | 77% |
| B22 | 64% |
| B23 | 99% |
| B24 | 83% |

| Binder | Protein binding (%) |
| --- | --- |
| B25 | 66% |
| B26 | 77% |
| B27 | 64% |
| B28 | 99% |
| B29 | 73% |
| B30 | 71% |
| B31 | 58% |
| B32 | 91% |
| B33 | 69% |
| B34 | 89% |
| B35 | 95% |
| B36 | 95% |
| B37 | 89% |
| B38 | 85% |
| B39 | 94% |
| B40 | 96% |
| B41 | 83% |
| B42 | 79% |
| B43 | 71% |
| B44 | 86% |
| B45 | 78% |
| B46 | 91% |
| B47 | 81% |
| B48 | 81% |
